Read-outs that look alike come from different tables or passages of the source.
Assays:
[1] = target: S100A4 (metastasin), wild type (UniProt P26447); assay: fluorescence polarisation; competitive FP; 50 nM Fl-NMIIA complexed with 4 μM S100A4 dimer titrated with ezrin constructs; competition binding equation; triplicates
[2] = target: S100A4 (metastasin), wild type (UniProt P26447); assay: as above; remark: listed apart in the source
[3] = target: Fl-C-ERMAD^516–560 (fluorescently labeled, Cys-Lys516-Leu560) (human); assay: fluorescence polarisation; direct FP; 50 nM fluorescent tracer (Fl-C-ERMAD variants or Fl-NMIIA) titrated with S100 proteins or N-ERMAD; 20 mM HEPES pH 7.5, 150 mM NaCl, 0.1 mM TCEP, 1 mM CaCl2, 0.05% Tween-20; triplicates; quadratic binding equation
[4] = target: S100A4-Δ9 (S100A4 C-terminally truncated by 9 residues) (UniProt P26447); assay: NMR titration; unlabeled C-ERMAD (7.5 mM stock) added gradually to 15N-labeled S100A4-Δ9 dimer (250 μM) up to 2.1:1; 1H-15N HSQC, 700 MHz, 300 K; 20 mM MES pH 6.0, 150 mM NaCl, 10 mM CaCl2, 5 mM TCEP; ten shifting peaks fitted to a quadratic binding equation

S100A4 (metastasin), wild type (UniProt P26447), sequence (P26447 whole entry): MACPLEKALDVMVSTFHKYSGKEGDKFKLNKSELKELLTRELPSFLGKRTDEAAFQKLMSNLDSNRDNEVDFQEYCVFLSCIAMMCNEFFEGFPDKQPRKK
Ezrin C-ERMAD (Cys-Lys516-Leu586), unlabeled, sequence (P15311 other isoform, or with tags, fused parts or gaps): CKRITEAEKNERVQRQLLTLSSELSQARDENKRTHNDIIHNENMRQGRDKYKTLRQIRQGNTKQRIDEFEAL
S100A4 (metastasin), wild type (from UniProt P26447 1-101) (natural protein), sequence (P26447 whole entry): as the sequence (P26447 whole entry) above

“Ezrin C-ERMAD^516–560 (Cys-Lys516-Leu560), unlabeled (domain or fragment)” showed a Kd [1] of 28.6 µM and a Kd [2] of 27.6 µM.
“S100A4 (metastasin), wild type (from UniProt P26447 1-101) (natural protein)” gave a Kd [3] of 8.4 µM.
“Ezrin C-ERMAD (Cys-Lys516-Leu586), unlabeled (from UniProt P15311 516-586) (domain or fragment)” showed a Kd [4] of 10.8 µM.

Reference: PMC5426754
